The results in this text go back to article PMC7093966.

In the test the target is FITC-Aβ42 (UniProt P05067). Put plainly: solid-phase fluorescence binding assay (FITC-peptide on coated plate); black 96-well plates coated with 50 μg/mL rat-tail collagen-I or 10% BSA; 1 μM FITC-Aβ42 in RPMI with or without 200 μg/mL HDL (total, apoE-depleted or apoE-enriched) or BSA; 24 h at 37 °C, 5% CO2; PBS washes; excitation 490 nm, emission 520 nm.
Chain of FITC-Aβ42 (P05067 672-713): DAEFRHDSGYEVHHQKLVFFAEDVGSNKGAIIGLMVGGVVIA

Chain of High density lipoprotein (HDL), density 1.063-1.21 g/mL (P02649 whole entry, looked up): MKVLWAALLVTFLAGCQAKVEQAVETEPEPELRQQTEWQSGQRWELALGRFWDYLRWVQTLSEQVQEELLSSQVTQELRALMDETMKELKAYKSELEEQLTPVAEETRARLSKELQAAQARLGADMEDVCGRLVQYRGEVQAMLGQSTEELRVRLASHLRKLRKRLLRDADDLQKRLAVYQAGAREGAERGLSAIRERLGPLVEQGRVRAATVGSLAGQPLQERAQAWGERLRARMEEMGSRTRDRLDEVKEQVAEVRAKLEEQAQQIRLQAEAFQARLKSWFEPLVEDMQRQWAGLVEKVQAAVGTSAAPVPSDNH
Chain of High density lipoprotein (HDL), density 1.063-1.21 g/mL (P02652 whole entry, looked up): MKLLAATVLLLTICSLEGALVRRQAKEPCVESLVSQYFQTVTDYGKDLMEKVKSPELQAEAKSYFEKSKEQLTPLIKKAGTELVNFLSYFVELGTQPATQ
Chain of High density lipoprotein (HDL), density 1.063-1.21 g/mL (P02647 whole entry, looked up): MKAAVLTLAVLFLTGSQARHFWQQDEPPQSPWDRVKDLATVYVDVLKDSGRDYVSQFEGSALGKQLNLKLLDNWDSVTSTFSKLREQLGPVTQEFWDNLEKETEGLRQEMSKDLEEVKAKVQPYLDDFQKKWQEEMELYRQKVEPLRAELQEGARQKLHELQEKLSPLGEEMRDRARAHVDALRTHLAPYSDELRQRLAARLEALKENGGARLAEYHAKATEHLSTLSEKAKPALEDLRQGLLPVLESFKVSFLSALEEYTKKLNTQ

As to “High density lipoprotein (HDL), density 1.063-1.21 g/mL (from UniProt P02647 19-267; P02652 19-100; P02649 19-317) (complex)”, the fold reduction of Aβ42 binding to BSA is 11.8 fold and the fold reduction of Aβ42 binding to collagen-I was 7 fold.
